Laboratory results as given in patent US20220331401A1 (Stanford University, published 2022).

Assays:
[1] = target: T1, recombinant human CLCF1 (cardiotrophin-like cytokine factor 1), residues 28-225 (UniProt Q9UBD9 28-225); test: ELISA; ±6
T1 chain: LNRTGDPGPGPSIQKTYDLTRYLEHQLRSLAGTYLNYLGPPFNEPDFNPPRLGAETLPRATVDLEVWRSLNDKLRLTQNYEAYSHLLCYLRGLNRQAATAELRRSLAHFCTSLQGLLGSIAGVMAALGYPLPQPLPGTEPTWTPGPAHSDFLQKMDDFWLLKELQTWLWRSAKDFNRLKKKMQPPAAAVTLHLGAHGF

[2] = target: T2, recombinant human CLCF1 (cardiotrophin-like cytokine factor 1), residues 28-225 (human, UniProt Q9UBD9 28-225); test: microtiter plate-based assay (capture of the CNTFR construct, detection with anti-CLCF1)
T2 construct: Only one recombinant CLCF1 preparation is described; also called CLCF1-His; not shown: His tag (named CLCF1-His, detected with anti-HIS antibody)
T2 sequence: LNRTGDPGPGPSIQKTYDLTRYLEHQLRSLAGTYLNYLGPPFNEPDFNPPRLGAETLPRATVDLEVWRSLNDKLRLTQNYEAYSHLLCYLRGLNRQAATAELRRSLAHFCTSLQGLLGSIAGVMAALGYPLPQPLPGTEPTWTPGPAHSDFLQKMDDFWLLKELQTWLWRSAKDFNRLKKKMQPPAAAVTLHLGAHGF

[3] = target: T3, recombinantly produced CNTF (ciliary neurotrophic factor) (Homo sapiens (Human), UniProt P26441 1-200); test: microtiter plate-based binding assay
T3 sequence: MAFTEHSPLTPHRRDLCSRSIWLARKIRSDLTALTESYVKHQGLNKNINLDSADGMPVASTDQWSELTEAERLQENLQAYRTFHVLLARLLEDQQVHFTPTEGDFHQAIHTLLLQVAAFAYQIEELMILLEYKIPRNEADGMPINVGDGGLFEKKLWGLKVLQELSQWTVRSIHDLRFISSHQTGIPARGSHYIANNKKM

mouse CLCF1 [4] = target: T4, mouse CLCF1 (mouse, UniProt Q9QZM3 28-225); test: microtiter plate-based binding assay
T4 sequence (looked up): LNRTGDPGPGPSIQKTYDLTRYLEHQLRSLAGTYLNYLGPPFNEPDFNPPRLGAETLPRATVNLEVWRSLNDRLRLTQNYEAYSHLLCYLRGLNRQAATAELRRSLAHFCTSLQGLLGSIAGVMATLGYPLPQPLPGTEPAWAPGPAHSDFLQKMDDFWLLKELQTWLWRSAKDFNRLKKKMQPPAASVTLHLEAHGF

mouse CLCF1 [5] = target: T5, mouse CLCF1 (mouse, UniProt Q9QZM3 28-225); test: ELISA; ±7
T5 chain: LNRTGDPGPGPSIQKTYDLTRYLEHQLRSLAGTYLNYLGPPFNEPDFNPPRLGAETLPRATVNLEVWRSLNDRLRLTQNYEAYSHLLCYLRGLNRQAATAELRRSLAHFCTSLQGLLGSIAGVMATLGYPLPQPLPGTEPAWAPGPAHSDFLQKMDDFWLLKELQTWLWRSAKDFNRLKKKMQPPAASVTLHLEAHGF

[6] = target: T1, recombinant human CLCF1 …; test: ELISA; ±4
[7] = target: T1, recombinant human CLCF1 …; test: yeast display flow cytometry; apparent Kd, ±0.006
[8] = target: T1, recombinant human CLCF1 …; test: yeast display flow cytometry; apparent Kd, ±0.4
[9] = target: T1, recombinant human CLCF1 …; test: yeast display flow cytometry; apparent Kd, ±5
[10] = target: T1, recombinant human CLCF1 …; test: yeast display flow cytometry; apparent Kd, ±0.07
[11] = target: T1, recombinant human CLCF1 …; test: yeast display flow cytometry; apparent Kd, ±0.02
[12] = target: T2, recombinant human CLCF1 …; test: yeast display, flow cytometry titration with CLCF1
Description: Directed evolution was used to engineer a soluble CNTFR variant with stronger affinity for CLCF1 and lack of binding to gp130 and LIFR. It was hypothesized that such a molecule would act as an efficient ligand trap and antagonize CLCF1-mediated oncogenic signaling. To develop a high-affinity receptor decoy, DNA encoding the extracellular domain of CNTFR was subjected to random mutagenesis via error-prone PCR. […] The library was screened to enrich for variants with increased CLCF1 binding using flow cytometry. After 3 rounds of screening, T174P and S237F appeared as consensus mutations, with substantial diversity observed at other amino acid positions. To probe additive effects of these mutations, 20 randomly selected distinct clones from the sorted populations were shuffled using the Staggered Extension Process (StEP) method to create a second library. A combination of equilibrium binding and kinetic off-rate screens were used to sort this library to impose increased screening stringency (FIG. 2, panel C). […]
Yeast displaying the CNTFR constructs were incubated with varying concentrations of CLCF1 for 12 h at room temperature to reach equilibrium binding. […] Then samples were washed and analyzed by flow cytometry using BD Accuri flow cytometer. Samples were analyzed on BD Bioscience software, and data were analyzed using FlowJo software (Treestar Inc).

[13] = target: T1, recombinant human CLCF1 …; test: yeast display flow cytometry; apparent Kd, ±3
[14] = target: T1, recombinant human CLCF1 …; test: yeast display flow cytometry; apparent Kd, ±0.003

B1: soluble eCNTFR with a C-terminal hexahistidine tag (receptor)
chain: QRHSPQEAPHVQYERLGSDVTLPCGTANWDAAVTWRVNGTDLAPDLLNGSQLVLHGLELGHSGLYACFHRDSWHLRHQVLLHVGLPPQEPVLSCRSNTYPKGFYCSWHLPTPTYIPNTFNVTVLHGSKIMVCEKDPALKNRCHIRYMHLFSPIKHNVSISVSNALGHNATAITFDEFTIVKPDPPENVVARPVPSNPRRLEVTWQTPSTWPDPEFFPLKFFLRYRPLILDQWQHVELSDGTAHTIAAAYAGKEYIIQVAAKDNEFGTWSDWSVAAHATPWTEEPRHLTTEAQAAETTTSTTSSLAPPPTTKICDPGELGS
notes: also called eCNTFR-His; not shown: C-terminal hexahistidine tag
[1]
  Kd: 75 pM
[2]
  binding result: binds

B2: soluble eCNTFR fused to an antibody Fc domain (Fc fusion)
chain: QRHSPQEAPHVQYERLGSDVTLPCGTANWDAAVTWRVNGTDLAPDLLNGSQLVLHGLELGHSGLYACFHRDSWHLRHQVLLHVGLPPQEPVLSCRSNTYPKGFYCSWHLPTPTYIPNTFNVTVLHGSKIMVCEKDPALKNRCHIRYMHLFSPIKHNVSISVSNALGHNATAITFDEFTIVKPDPPENVVARPVPSNPRRLEVTWQTPSTWPDPEFFPLKFFLRYRPLILDQWQHVELSDGTAHTIAAAYAGKEYIIQVAAKDNEFGTWSDWSVAAHATPWTEEPRHLTTEAQAAETTTSTTSSLAPPPTTKICDPGELGSRRLEPRGPTIKPCPPCKCPAPNLLGGPSVFIFPPKIKDVLMISLSPIVTCVVVDVSEDDPDVQISWFVNNVEVHTAQTQTHREDYNSTLRVVSALPIQHQDWMSGKEFKCKVNNKDLPAPIERTISKPKGSVRAPQVYVLPPPEEEMTKKQVTLTCMVTDFMPEDIYVEWTNNGKTELNYKNTEPVLDSDGSYFMYSKLRVEKKNWVERNSYSCSVVHEGLHNHHTTKSFSRTPGK
notes: The tie is the identical set of eight mutations plus an Fc domain; also called eCNTFR-Fc
[3]
  binding result: no binding
Mouse CLCF1 [4]
  binding result: binds
Mouse CLCF1 [5]
  Kd: 131 pM
[6]
  Kd: 63 pM
[2]
  binding result: binds

B3: Variant 3 (T174P, S237F, I287F) (protein)
chain: MAAPVPWACCAVLAAAAAVVYAQRHSPQEAPHVQYERLGSDVTLPCGTANWDAAVTWRVNGTDLAPDLLNGSQLVLHGLELGHSGLYACFHRDSWHLRHQVLLHVGLPPREPVLSCRSNTYPKGFYCSWHLPTPTYIPNTFNVTVLHGSKIMVCEKDPALKNRCHIRYMHLFSPIKYKVSISVSNALGHNATAITFDEFTIVKPDPPENVVARPVPSNPRRLEVTWQTPSTWPDPEFFPLKFFLRYRPLILDQWQHVELSDGTAHTITDAYAGKEYIIQVAAKDNEFGTWSDWSVAAHATPWTEEPRHLTTEAQAAETTTSTTSSLAPPPTTKICDPGELGSGGGPSAPFLVSVPITLALAAAAATASSLLI
[7]
  Kd: 49 pM

B4: Variant 1 (S237F) (protein)
chain: MAAPVPWACCAVLAAAAAVVYAQRHSPQEAPHVQYERLGSDVTLPCGTANWDAAVTWRVNGTDLAPDLLNGSQLVLHGLELGHSGLYACFHRDSWHLRHQVLLHVGLPPREPVLSCRSNTYPKGFYCSWHLPTPTYIPNTFNVTVLHGSKIMVCEKDPALKNRCHIRYMHLFSTIKYKVSISVSNALGHNATAITFDEFTIVKPDPPENVVARPVPSNPRRLEVTWQTPSTWPDPEFFPLKFFLRYRPLILDQWQHVELSDGTAHTITDAYAGKEYIIQVAAKDNEIGTWSDWSVAAHATPWTEEPRHLTTEAQAAETTTSTTSSLAPPPTTKICDPGELGSGGGPSAPFLVSVPITLALAAAAATASSLLI
[8]
  Kd: 41000 pM

B5: Neg sort (R110Q, T174P, Y177H, K178N, S237F, I287F) (protein)
chain: MAAPVPWACCAVLAAAAAVVYAQRHSPQEAPHVQYERLGSDVTLPCGTANWDAAVTWRVNGTDLAPDLLNGSQLVLHGLELGHSGLYACFHRDSWHLRHQVLLHVGLPPQEPVLSCRSNTYPKGFYCSWHLPTPTYIPNTFNVTVLHGSKIMVCEKDPALKNRCHIRYMHLFSPIKHNVSISVSNALGHNATAITFDEFTIVKPDPPENVVARPVPSNPRRLEVTWQTPSTWPDPEFFPLKFFLRYRPLILDQWQHVELSDGTAHTITDAYAGKEYIIQVAAKDNEFGTWSDWSVAAHATPWTEEPRHLTTEAQAAETTTSTTSSLAPPPTTKICDPGELGSGGGPSAPFLVSVPITLALAAAAATASSLLI
[9]
  Kd: 14 pM

B6: Variant 5 (S237F, I287F) (protein)
chain: MAAPVPWACCAVLAAAAAVVYAQRHSPQEAPHVQYERLGSDVTLPCGTANWDAAVTWRVNGTDLAPDLLNGSQLVLHGLELGHSGLYACFHRDSWHLRHQVLLHVGLPPREPVLSCRSNTYPKGFYCSWHLPTPTYIPNTFNVTVLHGSKIMVCEKDPALKNRCHIRYMHLFSTIKYKVSISVSNALGHNATAITFDEFTIVKPDPPENVVARPVPSNPRRLEVTWQTPSTWPDPEFFPLKFFLRYRPLILDQWQHVELSDGTAHTITDAYAGKEYIIQVAAKDNEFGTWSDWSVAAHATPWTEEPRHLTTEAQAAETTTSTTSSLAPPPTTKICDPGELGSGGGPSAPFLVSVPITLALAAAAATASSLLI
[10]
  Kd: 40 pM

B7: Variant 2 (T174P, S237F) (protein)
chain: MAAPVPWACCAVLAAAAAVVYAQRHSPQEAPHVQYERLGSDVTLPCGTANWDAAVTWRVNGTDLAPDLLNGSQLVLHGLELGHSGLYACFHRDSWHLRHQVLLHVGLPPREPVLSCRSNTYPKGFYCSWHLPTPTYIPNTFNVTVLHGSKIMVCEKDPALKNRCHIRYMHLFSPIKYKVSISVSNALGHNATAITFDEFTIVKPDPPENVVARPVPSNPRRLEVTWQTPSTWPDPEFFPLKFFLRYRPLILDQWQHVELSDGTAHTITDAYAGKEYIIQVAAKDNEIGTWSDWSVAAHATPWTEEPRHLTTEAQAAETTTSTTSSLAPPPTTKICDPGELGSGGGPSAPFLVSVPITLALAAAAATASSLLI
[11]
  Kd: 890 pM

B8: yeast-displayed CNTFR variant 4 (R110Q, T174P, S237F, I287F) (receptor)
chain: AVVYAQRHSPQEAPHVQYERLGSDVTLPCGTANWDAAVTWRVNGTDLAPDLLNGSQLVLHGLELGHSGLYACFHRDSWHLRHQVLLHVGLPPQEPVLSCRSNTYPKGFYCSWHLPTPTYIPNTFNVTVLHGSKIMVCEKDPALKNRCHIRYMHLFSPIKYKVSISVSNALGHNATAITFDEFTIVKPDPPENVVARPVPSNPRRLEVTWQTPSTWPDPEFFPLKFFLRYRPLILDQWQHVELSDGTAHTITDAYAGKEYIIQVAAKDNEFGTWSDWSVAAHATPWTEEPRHLTTEAQAAETTTSTTSSLAPPPTTKICDPGELGS
notes: not shown: Aga2p fusion partner and linkers of the pCTCON2 yeast display plasmid; c-Myc tag used to detect expression
[12]
  Kd: 20 pM
[13]
  Kd: 19 pM
[14]
  Kd: 19 pM
